Five molecules from PMC8769072, “Proteome‐scale mapping of binding sites in the unstructured regions of the human proteome” (Molecular Systems Biology, 2022) can be followed below.

A word on the Ki: it is a dissociation constant, usually derived from enzyme kinetics or from competition with a known ligand.

Test in all cases: fluorescence polarisation; competition: unlabelled peptide in serial dilution displaces a FITC-labelled probe peptide from the bait domain (master mix with protein at four times the KD of the probe, 10 nM probe, 2 mM DTT); 50 mM KPO4 or NaPO4 pH 7.5; triplicates; probe for KEAP1 Kelch: FITC-NFE2L1 228-243, other probes in Dataset EV6
Holding throughout (details): both partners purified
For orientation: Polarisation of emitted light reports the rotation of a fluorescent probe.

In assay [1] the target is KEAP1 Kelch, MBP‐tagged domain, for affinity measurements (human).
KEAP1 Kelch, MBP‐tagged domain, for affinity measurements (human), sequence (chain, as listed by the source): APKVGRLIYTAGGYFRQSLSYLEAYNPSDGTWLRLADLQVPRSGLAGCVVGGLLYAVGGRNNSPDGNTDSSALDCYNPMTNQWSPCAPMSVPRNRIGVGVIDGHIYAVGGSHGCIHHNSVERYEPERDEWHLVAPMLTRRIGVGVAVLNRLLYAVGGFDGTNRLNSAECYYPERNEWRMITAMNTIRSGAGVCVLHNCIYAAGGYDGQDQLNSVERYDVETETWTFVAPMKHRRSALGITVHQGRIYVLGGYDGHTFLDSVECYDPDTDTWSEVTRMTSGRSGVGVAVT
The target in assay [2] is T1, 14‐3‐3 SFN, tag cleaved, for affinity measurements (human).
T1 chain: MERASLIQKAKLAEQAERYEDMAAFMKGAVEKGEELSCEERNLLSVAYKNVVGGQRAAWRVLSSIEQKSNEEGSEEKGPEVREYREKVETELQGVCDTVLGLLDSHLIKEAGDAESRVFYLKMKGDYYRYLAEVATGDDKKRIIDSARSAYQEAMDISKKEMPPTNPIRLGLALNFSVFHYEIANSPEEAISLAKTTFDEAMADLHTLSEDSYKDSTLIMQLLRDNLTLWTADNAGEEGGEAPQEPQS

In assay [3] the target is T2, TLN1 PTB, tag cleaved, for affinity measurements (human).
T2 chain: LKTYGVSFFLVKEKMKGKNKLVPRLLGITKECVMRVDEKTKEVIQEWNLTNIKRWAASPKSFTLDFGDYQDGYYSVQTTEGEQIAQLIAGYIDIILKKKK

In the case of Ac-YDEEKGEFLPIQPAQH-NH2 [NFE2L2 T80K peptide, synthetic], the “fold loss of affinity against the wild-type peptide” value in assay [1] was determined as 1000 fold.

B1: MAP1A_(1836–1851) peptide, synthetic (peptide)
peptide: PSWLADIPPWVPKDRP
notes: microtubule-associated protein 1A, human, residues 1836-1851; source: synthetic peptide, bought: GeneCust
Turning to B1, the inhibition constant Ki in assay [2] was 355 µM.

B2: ITB3_(763–778) peptide from integrin beta‐3, synthetic (peptide)
peptide: AKWDTANNPLYKEATS
notes: integrin beta-3, human, residues 763-778; source: synthetic peptide, bought: GeneCust
Molecule B2 yielded a Ki in assay [3] of 500 µM.

B3: PTTG1_(4–19) peptide from securin, synthetic (peptide, UniProt O95997 4-19, looked up)
peptide: LIYVDKENGEPGTRVV
notes: securin, human, residues 4-19 (NGE containing); source: synthetic peptide, bought: GeneCust
For B3, the Ki in assay [1] was found to be 1 µM.

Consider Ac-YDEKTGEFLPIQPAQH-NH2 [NFE2L2 E79K peptide, synthetic], for which the “fold loss of affinity against the wild-type peptide” value in assay [1] is 1000 fold.
